Data on 5 proteins can be found in publication PMC6528580, “Relative catalytic efficiencies and transcript levels of three D‐ and two L‐lactate dehydrogenases for optically pure D‐lactate production in Sporolactobacillus inulinus” (MicrobiologyOpen, 2018).

Substrate in this data set: CC(=O)C(=O)O
Briefly: purified protein. The data set is classed as biochemical, Sporolactobacillus inulinus. To be noted: 0.4 mM NADH, pyruvate 0.05-40 mM.

B1: L-LDH1 (Sporolactobacillus inulinus CASD) (protein)
chain: MSETVRRVGVVGIGNVGKAAASAVLHENIADELYISDIDSERAKGEAWDFADSIELTPSRTRVLEVPLEGLAVCDVILVAVTERSQIPTQSRLELLKGTAAITYDIVPKLRKAGFKGTYVIATNPCDIITYLFYKLSGLPKNHVIGTGTALDSMRLRRQLSQVIGDVDPRSINAFMIGEHGDSQIAAWSQATVGGQPLDQFEEDNVDEFGPIDRDQVEDAARHFGWEIHTRKGNTQFGIGNALAFFAKSILNDARVVTAASVIQNGEYGQNDLAIGVPIILGRNGVERIIKFRLSEKEQEGFNGSAELIKGYIKQTLEEHEETTAN
notes: N-terminal His-tag (pET-28a) removed by enterokinase; E. coli BL21(DE3)
In the case of B1, where the note is “pH 7.0, 45 °C”, the Km (in general, the substrate concentration at which the rate is half of its maximum) is 4.1 ± 0.12 mM; the Vmax – broadly, the rate approached at saturating substrate – was determined as 5.2 µmol/min/mg; the kcat – broadly, the maximal rate divided by the concentration of active sites – was found to be 5.9 ± 0.1 s⁻¹; the kcat/Km (in general, the turnover number divided by the Michaelis constant) is 1400 ± 100 M⁻¹ s⁻¹.

B2: D-LDH3 (Sporolactobacillus inulinus CASD) (protein)
chain: MKIIMFSVRDDEEAAIREWEKKTGVQVDINRLELDAETAQLTKGYDGIVIQQRSHISNPAVYETLQKNGLRQLTSRTAGYDMIDLEQASERGLVVTNVPAYSPNSVAELALTQTMRLIRNLPLFDARGAEQDFRWAGLMAREIRSLTVGIIGAGRIGGTVARLFKALGATVIANDIVERVELKDIVTYVSKEELLQAADVVTLHVPLMDSTTQLIDADALALMKNDAVLINASRGPVVDTDALIAALQNKQIAGAALDTLNGEEHFFNQDLCGKELPSEQLKVLRTLPNVLITPHIGFYTNKAVQNMVEISLNDVLAILKTGTSEHQLNKVAVEN
notes: N-terminal His-tag (pET-28a) removed by enterokinase; E. coli BL21(DE3); homodimer hypothesised from identical DLDH744
B2: under “pH 5.5, 30 °C”, the Km is recorded as 3.1 ± 0.08 mM, the Vmax was 9.2 µmol/min/mg, the kcat was determined as 10.7 ± 0.2 s⁻¹ and the kcat/Km was 3500 ± 200 M⁻¹ s⁻¹.

B3: L-LDH2 (Sporolactobacillus inulinus CASD) (protein)
chain: MRKYAIIGLGHVGAAVAFQLVSRGIADELILIDTNEGLARAEQLDLQDMQGRIDTRTIIKINDYSELADTDILFITAGNILAYKEKQAQGNRWAEFEYTKDIVQDIAPKVKASGFHGVAIDTMNPCDAITQYFQENTGLSRQQVFATGTFLDTARMQKVVSDQFDCDPKNVSGYVYGEHGESQFTAWSTVRVNGLDITELAKERNLNLDDLEEAARRGGWEVYKGKGYTSWAISTCAVKLSQAVLSDAHAACICSCYSEKYGTYVGQPAIIGKNGIEEVLTLPLTTEEEAKFKHSADTIKEKFQTFEKQTN
notes: as for B1
For B3, under “pH 7.0, 40 °C”, the Km turned out to be 6.8 ± 0.19 mM, the Vmax worked out at 1.9 µmol/min/mg, the kcat came to 2.3 ± 0.1 s⁻¹ and the kcat/Km was found to be 300 ± 100 M⁻¹ s⁻¹.

B4: D-LDH2 (Sporolactobacillus inulinus CASD) (protein)
chain: MAFKIIAYGVEPYEEHLYSELNKYGFELTLVNDLLTADNGDLAKGHDGVLLFVNCLADRANLEKFNDYGINYVFTRTAGFNHIDLQAAADLGIKVARVPAYSPNAIAELAVYLGTSLLRHTVYTTARTSKLNFTVTETNFSHEVHKIKVGIVGTGHIGCVEAELYKGLGAKLLGYDIFQSDFAKKLVEFKELDELLAESDIVSLHLPYFPGKNENFVGEDFIGKMKDGAILINTARGELVDEAAVAKAIKSGKLEGFGADVLTDEARFFGKDFSDGTEFPDATIKELIELYPKVLITPHVAAMTDVAVSNMISTSYDNFNAAIKGESLGRAEVELPEPAKK
notes: as for B1
Take B4: where the note is “pH 7.5, 30 °C”, the Km is reported as 1.4 ± 0.09 mM, the Vmax was 38.1 µmol/min/mg, the kcat amounted to 44.7 ± 0.3 s⁻¹ and the kcat/Km was 32000 ± 2000 M⁻¹ s⁻¹.

B5: D-LDH1 (Sporolactobacillus inulinus CASD) (protein)
chain: MKLFMYGVQAHEKEIIRAWADAHAIDIETTADFLSEKTVDRAKDYDGICIQQPVPLGAAKLYATLKSYGIKQIATRTAGYDMIDLQEAEKNELIVTNVPAYSPYAVAELAVTQAMQLVRHVSQFQQRIAANDFRWDGLMSREIRSMTVGIVGTGRIGATAAQLFKGLGAKIIGFDQYPNDRLKDLIEYRSSLEDVLKEADIVSLHTPLFDSTRHMINARTLKLMKKSAYLINIARGALIDTEALIDALESGEIAGAALDTFENETVINKNLSGQSLNDPLLEKLIAMDQVLLTPHVGFFTETAIRNIVEGALNSVLEVLQTGTSKSRVKPAVTQ
notes: as for B1
B5: under “pH 6.0, 35 °C”, the Km is recorded as 0.47 ± 0.04 mM, the Vmax stood at 62.7 µmol/min/mg, the kcat was determined as 75.8 ± 0.3 s⁻¹ and the kcat/Km is 161000 ± 6000 M⁻¹ s⁻¹.
